Assay results as given in paper PMC4486954, “Highly homologous proteins exert opposite biological activities by using different interaction interfaces” (Scientific Reports, 2015).

Biological target: T1, iASPP Ank-SH3 (Homo sapiens, UniProt Q8WUF5)
T1 construct: (2) iASPP Ank-SH3 603-828; HLT tag (His tag + lipoyl domain + TEV site) (N, cleaved yes); made in house; host or cells: E. coli HMS 174 (Novagen)
T1 sequence (Q8WUF5 603-828): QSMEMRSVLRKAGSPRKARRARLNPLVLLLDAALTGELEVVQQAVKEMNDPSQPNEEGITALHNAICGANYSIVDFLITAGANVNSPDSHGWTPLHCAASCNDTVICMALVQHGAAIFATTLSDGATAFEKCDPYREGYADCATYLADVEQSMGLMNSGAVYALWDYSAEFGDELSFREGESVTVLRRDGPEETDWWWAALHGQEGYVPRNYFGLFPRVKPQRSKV
Test: Nickel affinity pulldown of iASPP Ank-SH3 by HLT-iASPP Pro
Type: binding
Conditions: Nickel-NTA beads with HLT-iASPP Pro 1 h at 4 °C, then iASPP Ank-SH3 2 h at 4 °C; SDS-PAGE coomassie staining
Description: After purifying the recombinant HLT-iASPP Pro and iASPP Ank-SH3 we tested whether the recombinant proteins interact using Nickel affinity pulldown assay. Nickel-NTA beads were incubated for one hour with HLT-iASPP Pro or with buffer or HLT alone. Then the beads were incubated with iASPP Ank-SH3 for two hours.
Figure 4 HLT-iASPP Pro interacts with iASPP Ank-SH3 in vitro. Nickel affinity pulldown of iASPP Ank-SH3 by HLT-iASPP Pro, SDS PAGE gel coomassie staining results. Nickel-NTA beads were incubated with HLT-iASPP Pro or with buffer or HLT fusion domain alone, for 1 h at 4 °C. The samples were centrifuged and then incubated with iASPP Ank-SH3 for 2 h at 4 °C. The samples were centrifuged again and the beads were washed 3 times. The beads were eluted by boiling them in SDS solution. Ank-SH3 eluted from the beads only in the presence of HLT-iASPP Pro.
30 μl Nickel-NTA beads (Qiagen) were incubated with: (1) 500 μl buffer C (50 mM Phosphate buffer pH = 7.0, 300 mM NaCl, 10% glycerol, 0.02% NaN3 and 0.001% Tween 20); (2) 250 μl 31 μM HLT; (3) 2 ml 1.7 μM HLT-iASPP Pro (in buffer C) for 1 hour with gentle mixing at 4 °C and in the presence of 40 mM imidazole. The samples were centrifuged (2 min 3500 RPM), and washed with buffer C (5 min, 4 °C, gentle mixing). […] Samples were analyzed on a 10% SDS-PAGE gel.

B1: HLT-iASPP Pro: recombinant iASPP Pro 1-602 with HLT (His-lipoyl domain-TEV) tag (protein)
chain: MDSEAFQSARDFLDMNFQSLAMKHMDLKQMELDTAAAKVDELTKQLESLWSDSPAPPGPQAGPPSRPPRYSSSSIPEPFGSRGSPRKAATDGADTPFGRSESAPTLHPYSPLSPKGRPSSPRTPLYLQPDAYGSLDRATSPRPRAFDGAGSSLGRAPSPRPGPGPLRQQGPPTPFDFLGRAGSPRGSPLAEGPQAFFPERGPSPRPPATAYDAPASAFGSSLLGSGGSAFAPPLRAQDDLTLRRRPPKAWNESDLDVAYEKKPSQTASYERLDVFARPASPSLQLLPWRESSLDGLGGTGKDNLTSATLPRNYKVSPLASDRRSDAGSYRRSLGSAGPSGTLPRSWQPVSRIPMPPSSPQPRGAPRQRPIPLSMIFKLQNAFWEHGASRAMLPGSPLFTRAPPPKLQPQPQPQPQPQSQPQPQLPPQPQTQPQTPTPAPQHPQQTWPPVNEGPPKPPTELEPEPEIEGLLTPVLEAGDVDEGPVARPLSPTRLQPALPPEAQSVPELEEVARVLAEIPRPLKRRGSMEQAPAVALPPTHKKQYQQIISRLFHRHGGPGPGGPEPELSPITEGSEARAGPPAPAPPAPIPPPAPSQSSPPEQP
modifications: left off: HLT (His tag, lipoyl domain, TEV protease cleavage site), N-terminal, kept
notes: recombinant iASPP Pro 1-602 with HLT (His-lipoyl domain-TEV) tag
pulldown of iASPP Ank-SH3: retrieved
